Values of other authors as cited in patent US20250108009A1, “METHOD FOR SYNTHESIZING HYBRID NANOPARTICLES COMPRISING APOLIPOPROTEINS” (MEPSGEN CO., LTD., priority 2022, published 2025).

Conditions: Bekard et al. 2011

For insulin, the “shear rate at which structural changes and aggregates are formed” value is given as 200 s⁻¹ and the “shear stress at which structural changes and aggregates are formed” value is given as 1000 dyne/cm^2.
